PMC9482650, “Quantitative fragmentomics allow affinity mapping of interactomes” (Nature Communications, 2022)

Legend:
Test in all cases: holdup assay
Set-up in all cases: key: below the threshold = too weak to quantify, mostly under pKd 3.1 to 4
MAGI3_6, Q5TCQ9 = biological target: MAGI3_6, Q5TCQ9
RGS3, P49796-9 = biological target: RGS3, P49796-9
DLG5_2, Q8TDM6 = biological target: DLG5_2, Q8TDM6
DVL1, O14640 = biological target: T1, DVL1, O14640
T1 sequence (O14640 246-333, limits assumed, looked up): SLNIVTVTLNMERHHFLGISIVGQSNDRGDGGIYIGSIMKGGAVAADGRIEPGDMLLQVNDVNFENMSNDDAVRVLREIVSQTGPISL

MAGI3_5, Q5TCQ9 = biological target: MAGI3_5, Q5TCQ9
MPDZ_6, O75970 = biological target: T2, MPDZ_6, O75970
T2 sequence (O75970 1003-1099, limits assumed, looked up): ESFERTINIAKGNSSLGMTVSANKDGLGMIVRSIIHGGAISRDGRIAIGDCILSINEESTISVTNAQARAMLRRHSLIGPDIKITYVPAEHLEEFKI

MAGI3_4, Q5TCQ9 = biological target: MAGI3_4, Q5TCQ9
SHROOM4, Q9ULL8 = biological target: T3, SHROOM4, Q9ULL8
T3 sequence (Q9ULL8 5-102, limits assumed, looked up): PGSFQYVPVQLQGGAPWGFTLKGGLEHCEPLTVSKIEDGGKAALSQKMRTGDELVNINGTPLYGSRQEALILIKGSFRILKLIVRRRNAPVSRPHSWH

NHERF3_2, Q5T2W1 = biological target: T4, NHERF3_2, Q5T2W1
T4 sequence (Q5T2W1 129-225, limits assumed, looked up): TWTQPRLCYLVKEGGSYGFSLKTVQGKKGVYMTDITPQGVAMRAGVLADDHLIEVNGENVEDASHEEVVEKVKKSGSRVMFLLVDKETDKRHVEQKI

CNKSR3, Q6P9H4 = biological target: CNKSR3, Q6P9H4
USH1C_2, Q9Y6N9 = biological target: T5, USH1C_2, Q9Y6N9
T5 sequence (Q9Y6N9 206-303, limits assumed, looked up): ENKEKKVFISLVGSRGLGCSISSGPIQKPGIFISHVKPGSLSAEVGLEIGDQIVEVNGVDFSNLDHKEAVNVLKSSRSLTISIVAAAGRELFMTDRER

TJP1_1, Q07157 = biological target: TJP1_1, Q07157
MPDZ_11, O75970 = biological target: T6, MPDZ_11, O75970
T6 sequence (O75970 1720-1817, limits assumed, looked up): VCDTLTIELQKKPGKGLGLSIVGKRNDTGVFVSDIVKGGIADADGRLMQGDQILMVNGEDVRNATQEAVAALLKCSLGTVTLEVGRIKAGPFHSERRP

MAGI1_6, Q96QZ7 = biological target: MAGI1_6, Q96QZ7
PARD3B_3, Q8TEW8 = biological target: PARD3B_3, Q8TEW8
RIMS1, Q86UR5 = biological target: RIMS1, Q86UR5
IL16_2, Q14005 = biological target: IL16_2, Q14005
PDZD7_1, Q9H5P4 = biological target: T7, PDZD7_1, Q9H5P4
T7 sequence (Q9H5P4 81-178, limits assumed, looked up): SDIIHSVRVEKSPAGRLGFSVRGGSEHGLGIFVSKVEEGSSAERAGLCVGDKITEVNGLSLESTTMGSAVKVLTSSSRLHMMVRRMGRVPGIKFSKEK

USH1C_1, Q9Y6N9 = biological target: T8, USH1C_1, Q9Y6N9
T8 sequence (Q9Y6N9 82-179, limits assumed, looked up): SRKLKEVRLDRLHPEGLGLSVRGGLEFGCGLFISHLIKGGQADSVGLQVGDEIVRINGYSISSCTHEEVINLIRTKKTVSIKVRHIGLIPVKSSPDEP

PDZD11, Q5EBL8 = biological target: T9, PDZD11, Q5EBL8
T9 sequence (Q5EBL8 42-139, limits assumed, looked up): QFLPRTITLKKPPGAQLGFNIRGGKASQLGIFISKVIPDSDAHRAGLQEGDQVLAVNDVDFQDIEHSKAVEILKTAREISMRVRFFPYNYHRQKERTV

MPDZ_13, O75970 = biological target: T10, MPDZ_13, O75970
T10 sequence (O75970 1982-2070, limits assumed, looked up): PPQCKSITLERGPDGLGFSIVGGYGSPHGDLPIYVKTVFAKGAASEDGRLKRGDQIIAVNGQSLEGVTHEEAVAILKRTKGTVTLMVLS

PREX2_2, Q70Z35 = biological target: T11, PREX2_2, Q70Z35
T11 sequence (Q70Z35 672-764, limits assumed, looked up): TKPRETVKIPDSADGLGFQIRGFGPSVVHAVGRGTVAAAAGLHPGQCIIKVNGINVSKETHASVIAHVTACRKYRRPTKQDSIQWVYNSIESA

PARD3_1, Q8TEW0 = biological target: PARD3_1, Q8TEW0
PDZD2_5, O15018 = biological target: T12, PDZD2_5, O15018
T12 sequence (O15018 2617-2716, limits assumed, looked up): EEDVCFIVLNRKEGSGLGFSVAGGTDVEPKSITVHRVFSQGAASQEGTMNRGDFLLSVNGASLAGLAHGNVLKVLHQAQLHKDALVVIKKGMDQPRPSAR

MAGI1_5, Q96QZ7 = biological target: MAGI1_5, Q96QZ7
Inadl_7, Q8NI35 = biological target: Inadl_7, Q8NI35
[1] = plain residues with an end cap or a label only (N-terminal biotin on a linker: ttds)
[2] = plain residues with an end cap or a label only (N-terminal biotin on a linker: none)

Measured: pKd

PARD3_1, Q8TEW0, sequence (Q8TEW0 264-372): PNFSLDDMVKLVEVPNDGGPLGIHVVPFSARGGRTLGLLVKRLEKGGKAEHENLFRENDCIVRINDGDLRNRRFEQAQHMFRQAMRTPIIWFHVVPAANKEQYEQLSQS
MAGI3_4, Q5TCQ9, sequence (Q5TCQ9 716-815): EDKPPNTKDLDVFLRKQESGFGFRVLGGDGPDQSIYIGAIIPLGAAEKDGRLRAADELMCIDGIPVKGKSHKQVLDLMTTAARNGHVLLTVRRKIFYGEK
MAGI3_5, Q5TCQ9, sequence (Q5TCQ9 847-941): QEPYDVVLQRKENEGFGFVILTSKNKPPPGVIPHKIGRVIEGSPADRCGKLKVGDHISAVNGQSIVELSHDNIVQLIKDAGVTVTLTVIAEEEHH
DLG5_2, Q8TDM6, sequence (Q8TDM6 714-800): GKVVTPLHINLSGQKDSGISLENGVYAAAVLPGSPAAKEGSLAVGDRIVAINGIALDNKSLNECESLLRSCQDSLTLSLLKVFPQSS
TJP1_1, Q07157, sequence (Q07157 18-120): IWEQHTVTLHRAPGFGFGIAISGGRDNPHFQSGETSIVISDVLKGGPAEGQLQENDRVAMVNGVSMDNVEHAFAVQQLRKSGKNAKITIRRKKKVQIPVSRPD
Inadl_7, Q8NI35, sequence (Q8NI35 1219-1332): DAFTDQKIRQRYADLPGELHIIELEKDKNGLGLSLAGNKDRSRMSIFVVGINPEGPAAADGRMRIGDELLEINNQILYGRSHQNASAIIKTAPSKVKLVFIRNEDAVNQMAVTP
MAGI3_6, Q5TCQ9, sequence (Q5TCQ9 1014-1103): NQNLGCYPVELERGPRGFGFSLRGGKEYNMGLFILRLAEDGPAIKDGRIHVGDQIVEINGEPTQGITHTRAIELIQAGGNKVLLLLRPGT
PARD3B_3, Q8TEW8, sequence (Q8TEW8 490-594): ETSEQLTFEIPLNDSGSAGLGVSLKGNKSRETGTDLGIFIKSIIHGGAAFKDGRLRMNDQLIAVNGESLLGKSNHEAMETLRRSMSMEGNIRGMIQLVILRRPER
MAGI1_5, Q96QZ7, sequence (Q96QZ7 986-1098): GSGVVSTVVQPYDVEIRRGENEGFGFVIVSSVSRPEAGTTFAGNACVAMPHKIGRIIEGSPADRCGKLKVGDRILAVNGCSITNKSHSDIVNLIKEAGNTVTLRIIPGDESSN
IL16_2, Q14005, sequence (Q14005 350-450): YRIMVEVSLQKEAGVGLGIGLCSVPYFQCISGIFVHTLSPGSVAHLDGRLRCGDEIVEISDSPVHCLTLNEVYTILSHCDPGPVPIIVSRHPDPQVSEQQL
RIMS1, Q86UR5, sequence (Q86UR5 584-692): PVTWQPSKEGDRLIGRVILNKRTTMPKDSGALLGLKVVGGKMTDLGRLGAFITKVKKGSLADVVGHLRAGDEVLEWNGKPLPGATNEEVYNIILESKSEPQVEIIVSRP
CNKSR3, Q6P9H4, sequence (Q6P9H4 203-303): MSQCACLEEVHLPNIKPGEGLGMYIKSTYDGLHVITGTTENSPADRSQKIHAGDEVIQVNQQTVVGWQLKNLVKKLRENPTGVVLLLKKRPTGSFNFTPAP
MAGI1_6, Q96QZ7, sequence (Q96QZ7 1146-1238): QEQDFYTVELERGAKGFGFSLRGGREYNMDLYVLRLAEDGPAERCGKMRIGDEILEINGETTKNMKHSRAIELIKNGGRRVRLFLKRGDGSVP
RGS3, P49796-9, sequence (P49796 other isoform, or with tags, fused parts or gaps): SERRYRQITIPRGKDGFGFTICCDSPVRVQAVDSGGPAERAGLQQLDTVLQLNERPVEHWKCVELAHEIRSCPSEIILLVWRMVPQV

DPLTPSRSQL [DGKK, Q5KSL6]
below the threshold: MAGI3_6, Q5TCQ9; [1] | RGS3, P49796-9; [1] | DLG5_2, Q8TDM6; [1] | DVL1, O14640; [1] | MAGI3_5, Q5TCQ9; [1] | MPDZ_6, O75970; [1] | MAGI3_4, Q5TCQ9; [1] | SHROOM4, Q9ULL8; [1] | NHERF3_2, Q5T2W1; [1] | CNKSR3, Q6P9H4; [1] | USH1C_2, Q9Y6N9; [1] | TJP1_1, Q07157; [1] | MPDZ_11, O75970; [1] | MAGI1_6, Q96QZ7; [1] | PARD3B_3, Q8TEW8; [1] | RIMS1, Q86UR5; [1] | IL16_2, Q14005; [1] | PDZD7_1, Q9H5P4; [1] | USH1C_1, Q9Y6N9; [1] | PDZD11, Q5EBL8; [1] | MPDZ_13, O75970; [1] | PREX2_2, Q70Z35; [1] | PARD3_1, Q8TEW0; [1] | PDZD2_5, O15018; [1] | MAGI1_5, Q96QZ7; [1] | Inadl_7, Q8NI35; [1]

MERLRVETDV [ARHGEF16, Q5VV41]
below the threshold: MAGI3_6, Q5TCQ9; [1] | RGS3, P49796-9; [1] | DLG5_2, Q8TDM6; [1] | DVL1, O14640; [1] | MAGI3_5, Q5TCQ9; [1] | MPDZ_6, O75970; [1] | MAGI3_4, Q5TCQ9; [1] | NHERF3_2, Q5T2W1; [1] | CNKSR3, Q6P9H4; [1] | USH1C_2, Q9Y6N9; [1] | TJP1_1, Q07157; [1] | MPDZ_11, O75970; [1] | PARD3B_3, Q8TEW8; [1] | RIMS1, Q86UR5; [1] | IL16_2, Q14005; [1] | PDZD7_1, Q9H5P4; [1] | USH1C_1, Q9Y6N9; [1] | PDZD11, Q5EBL8; [1] | MPDZ_13, O75970; [1] | PARD3_1, Q8TEW0; [1] | PDZD2_5, O15018; [1] | MAGI1_5, Q96QZ7; [1] | Inadl_7, Q8NI35; [1]
4.17: PREX2_2, Q70Z35; [1]
4.33: MAGI1_6, Q96QZ7; [1]
4.06: SHROOM4, Q9ULL8; [1]

IQREDQETAV [DGKZ, Q13574]
4.51: MAGI3_5, Q5TCQ9; [1]
below the threshold: MAGI3_6, Q5TCQ9; [1] | RGS3, P49796-9; [1] | DLG5_2, Q8TDM6; [1] | DVL1, O14640; [1] | MPDZ_6, O75970; [1] | MAGI3_4, Q5TCQ9; [1] | NHERF3_2, Q5T2W1; [1] | CNKSR3, Q6P9H4; [1] | USH1C_2, Q9Y6N9; [1] | TJP1_1, Q07157; [1] | MPDZ_11, O75970; [1] | PARD3B_3, Q8TEW8; [1] | RIMS1, Q86UR5; [1] | IL16_2, Q14005; [1] | PDZD7_1, Q9H5P4; [1] | USH1C_1, Q9Y6N9; [1] | PDZD11, Q5EBL8; [1] | MPDZ_13, O75970; [1] | PREX2_2, Q70Z35; [1] | PARD3_1, Q8TEW0; [1] | PDZD2_5, O15018; [1] | Inadl_7, Q8NI35; [1]
4.35: MAGI1_6, Q96QZ7; [1]
5.06: MAGI1_5, Q96QZ7; [1]
4.76: SHROOM4, Q9ULL8; [1]

DSKPPLPPDEWV [MERS-E, K9N5R3]
4.66: MAGI1_6, Q96QZ7; [2]
4: DLG5_2, Q8TDM6; [2]
4.67: RGS3, P49796-9; [2]
4.03: MAGI3_6, Q5TCQ9; [2]
4.38: RIMS1, Q86UR5; [2]
below the threshold: DVL1, O14640; [2] | MAGI3_5, Q5TCQ9; [2] | MPDZ_6, O75970; [2] | MAGI3_4, Q5TCQ9; [2] | SHROOM4, Q9ULL8; [2] | NHERF3_2, Q5T2W1; [2] | CNKSR3, Q6P9H4; [2] | USH1C_2, Q9Y6N9; [2] | TJP1_1, Q07157; [2] | MPDZ_11, O75970; [2] | PARD3B_3, Q8TEW8; [2] | IL16_2, Q14005; [2] | PDZD7_1, Q9H5P4; [2] | USH1C_1, Q9Y6N9; [2] | PDZD11, Q5EBL8; [2] | MPDZ_13, O75970; [2] | PREX2_2, Q70Z35; [2] | PARD3_1, Q8TEW0; [2] | PDZD2_5, O15018; [2] | MAGI1_5, Q96QZ7; [2] | Inadl_7, Q8NI35; [2]
